The target of this assay is Rpt6 (human, UniProt P62195 1-406). Description: cryo-EM structure.

B1: α2 subunit of the CP (natural protein)
chain: MAERGYSFSLTTFSPSGKLVQIEYALAAVAGGAPSVGIKAANGVVLATEKKQKSILYDERSVHKVEPITKHIGLVYSGMGPDYRVLVHRARKLAQQYYLVYQEPIPTAQLVQRVASVMQEYTQSGGVRPFGVSLLICGWNEGRPYLFQSDPSGAYFAWKATAMGKNYVNGKTFLEKRYNEDLELEDAIHTAILTLKESFEGQMTEDNIEVGICNEAGFRRLTPTEVKDYLAAIA
For B1, the binding result was “binds”.

B2: α3 subunit of the CP (natural protein)
chain: MSRRYDSRTTIFSPEGRLYQVEYAMEAIGHAGTCLGILANDGVLLAAERRNIHKLLDEVFFSEKIYKLNEDMACSVAGITSDANVLTNELRLIAQRYLLQYQEPIPCEQLVTALCDIKQAYTQFGGKRPFGVSLLYIGWDKHYGFQLYQSDPSGNYGGWKATCIGNNSAAAVSMLKQDYKEGEMTLKSALALAIKVLNKTMDVSKLSAEKVEIATLTRENGKTVIRVLKQKEVEQLIKKHEEEEAKAEREKKEKEQKEKDK
For B2, the binding result is on record as “binds”.

(Values after paper doi:10.1101/419051 (bioRxiv, 2018).)
